Literature values as cited in US20250064829A1, “METHODS OF USING ANTI-CD79B IMMUNOCONJUGATES TO TREAT DIFFUSE LARGE B-CELL LYMPHOMA” (Genentech, Inc., priority 2019, published 2025).

What was measured:
human CD20 antigen [1] = target: T1, human CD20 antigen (Homo sapiens, UniProt P11836); conditions: in vitro mechanism of action studies (Reff et al. 1994)
T1 sequence (P11836 1-297): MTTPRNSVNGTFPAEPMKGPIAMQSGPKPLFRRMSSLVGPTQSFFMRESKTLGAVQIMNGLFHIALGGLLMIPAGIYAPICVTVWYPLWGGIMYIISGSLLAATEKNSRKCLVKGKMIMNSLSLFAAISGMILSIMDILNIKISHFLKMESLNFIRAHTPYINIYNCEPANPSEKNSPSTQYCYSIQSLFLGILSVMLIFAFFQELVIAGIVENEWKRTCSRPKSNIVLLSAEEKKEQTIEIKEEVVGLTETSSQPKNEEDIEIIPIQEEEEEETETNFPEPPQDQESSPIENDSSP

human CD20 antigen [2] = target: T1, human CD20 antigen; conditions: in vitro
[3] = 1000 mg/m^2 at fixed dose rate of 10 mg/m^2/min compared to the standard 30-minute IV schedule

rituximab: anti-CD20 antibody having the CAS Registry Number 174722-31-7; type I anti-CD20 antibody
human complement-dependent cytotoxicity (CDC) (human CD20 antigen [1]): exhibits human complement-dependent cytotoxicity (CDC) | activity in assays that measure antibody-dependent cellular cytotoxicity (ADCC) (human CD20 antigen [2]): exhibits activity

Cl.Nc1ccn([C@@H]2O[C@H](CO)[C@@H](O)C2(F)F)c(=O)n1 [gemcitabine, 2′-deoxy-2′,2′-difluorocytidine monohydrochloride]
intracellular drug concentrations [3]: superior intracellular drug concentrations
